Assay [1] deals with T1, collagen type I (UniProt P02454 152-1207; P02466 86-1125).
T1 construct: collagen type I, alpha-1 chain; collagen type I, alpha-2 chain; two alpha-1 chains and one alpha-2 chain, and rat as the source, are surmised; also called Collagen I (Gibco); native collagen; source: bought: Gibco
Kind of assay: ELISA; Collagen I (Gibco) coated 96-well plates; LAIR-MSA fusion proteins in PBSTA for 4 h at room temperature; detected with HRP-conjugated anti-6xHis; mean, n = 2.

Assay [2] addresses Collagen I (Gibco), coated on 96-well plates (UniProt P02454). Kind of assay: ELISA; Collagen I (Gibco) coated 96-well plates; LAIR-fusion proteins in PBSTA (PBS, 0.1% BSA, 0.05% Tween-20) for 4 h at room temperature; detected with HRP-conjugated polyclonal anti-6xHis. (In general: An ELISA detects its analyte on a solid surface through an enzyme-linked reagent.)
The target of assay [3] is Collagen I (Gibco), coated on 96-well plates (UniProt P02454 152-1207; P02466 86-1125). Kind of assay: ELISA.
Target sequence in this assay (P02454 152-1207, chain 1 of 2): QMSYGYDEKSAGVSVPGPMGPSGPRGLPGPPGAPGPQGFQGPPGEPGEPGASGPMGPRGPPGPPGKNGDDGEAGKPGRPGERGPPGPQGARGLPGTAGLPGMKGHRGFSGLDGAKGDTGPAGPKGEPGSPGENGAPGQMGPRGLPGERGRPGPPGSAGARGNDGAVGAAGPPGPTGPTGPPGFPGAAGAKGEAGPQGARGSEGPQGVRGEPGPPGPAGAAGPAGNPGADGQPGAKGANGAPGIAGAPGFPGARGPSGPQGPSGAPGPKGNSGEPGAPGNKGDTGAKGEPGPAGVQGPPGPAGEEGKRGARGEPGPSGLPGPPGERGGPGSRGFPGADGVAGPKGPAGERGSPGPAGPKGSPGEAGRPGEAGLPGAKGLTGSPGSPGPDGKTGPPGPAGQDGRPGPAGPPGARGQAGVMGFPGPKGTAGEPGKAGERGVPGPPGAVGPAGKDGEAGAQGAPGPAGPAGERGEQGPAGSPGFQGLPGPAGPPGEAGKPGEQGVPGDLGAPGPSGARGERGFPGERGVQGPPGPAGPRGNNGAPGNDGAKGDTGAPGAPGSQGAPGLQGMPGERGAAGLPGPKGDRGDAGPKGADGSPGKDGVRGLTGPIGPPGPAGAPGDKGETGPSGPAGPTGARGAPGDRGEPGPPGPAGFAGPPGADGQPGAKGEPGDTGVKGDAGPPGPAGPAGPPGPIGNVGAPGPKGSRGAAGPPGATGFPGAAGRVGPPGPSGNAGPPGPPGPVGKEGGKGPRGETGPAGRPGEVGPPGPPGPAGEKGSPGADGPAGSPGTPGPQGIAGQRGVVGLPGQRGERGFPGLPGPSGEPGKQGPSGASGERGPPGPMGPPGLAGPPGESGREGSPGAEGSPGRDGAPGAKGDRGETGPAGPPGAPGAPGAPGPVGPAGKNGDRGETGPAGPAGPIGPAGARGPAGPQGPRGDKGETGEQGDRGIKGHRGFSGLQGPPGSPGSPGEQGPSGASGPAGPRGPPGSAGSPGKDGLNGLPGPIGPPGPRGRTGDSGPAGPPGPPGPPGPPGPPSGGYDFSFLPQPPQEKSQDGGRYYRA
Target sequence in this assay (P02466 86-1125, chain 2 of 2): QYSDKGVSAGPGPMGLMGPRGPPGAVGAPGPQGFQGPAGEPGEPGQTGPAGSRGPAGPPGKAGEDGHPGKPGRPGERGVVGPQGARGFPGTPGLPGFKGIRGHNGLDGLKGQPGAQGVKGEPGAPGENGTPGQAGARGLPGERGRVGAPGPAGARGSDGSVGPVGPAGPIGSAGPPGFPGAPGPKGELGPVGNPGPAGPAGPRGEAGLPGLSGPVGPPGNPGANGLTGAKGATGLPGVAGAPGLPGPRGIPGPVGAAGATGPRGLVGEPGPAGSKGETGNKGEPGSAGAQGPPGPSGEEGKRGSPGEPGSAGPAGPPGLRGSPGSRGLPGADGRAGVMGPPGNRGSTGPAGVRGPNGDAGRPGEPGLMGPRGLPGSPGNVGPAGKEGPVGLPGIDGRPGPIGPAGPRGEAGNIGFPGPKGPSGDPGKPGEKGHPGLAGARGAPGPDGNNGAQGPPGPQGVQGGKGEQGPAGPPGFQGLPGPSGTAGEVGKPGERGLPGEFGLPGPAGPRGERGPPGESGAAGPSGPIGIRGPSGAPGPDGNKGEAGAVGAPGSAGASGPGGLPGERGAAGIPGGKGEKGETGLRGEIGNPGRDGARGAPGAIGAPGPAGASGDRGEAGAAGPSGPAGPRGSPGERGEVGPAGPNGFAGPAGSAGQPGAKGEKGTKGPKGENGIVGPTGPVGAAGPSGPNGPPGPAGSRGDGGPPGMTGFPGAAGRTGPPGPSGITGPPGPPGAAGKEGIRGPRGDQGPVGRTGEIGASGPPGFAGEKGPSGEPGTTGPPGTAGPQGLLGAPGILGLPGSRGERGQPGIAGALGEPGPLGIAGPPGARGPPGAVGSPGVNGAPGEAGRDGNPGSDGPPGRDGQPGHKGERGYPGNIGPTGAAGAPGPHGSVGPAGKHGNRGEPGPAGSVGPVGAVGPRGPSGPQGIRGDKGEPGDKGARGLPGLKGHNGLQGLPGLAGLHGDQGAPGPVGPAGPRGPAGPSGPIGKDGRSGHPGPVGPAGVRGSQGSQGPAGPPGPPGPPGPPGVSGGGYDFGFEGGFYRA
Assay [4] deals with T2, Collagen I (Gibco), coated on 96-well plates (UniProt P02454 152-1207; P02466 86-1125).
T2 construct: collagen type I, alpha-1(I) chain; collagen type I, alpha-2(I) chain; the two chains and rat as species are surmised; also called native collagen; collagen type I; source: bought: Gibco (collagen I coated 96-well plates)
Kind of assay: ELISA; Collagen I (Gibco) coated 96-well plates; LAIR-fusion proteins in PBSTA (PBS, 0.1% BSA, 0.05% Tween-20) for 4 h at room temperature; detected with HRP-conjugated polyclonal anti-6xHis. The conditions noted are these: both partners purified.
T2 sequence (P02454 152-1207, chain 1 of 2): as the sequence (P02454 152-1207, chain 1 of 2) above
T2 sequence (P02466 86-1125, chain 2 of 2): as the sequence (P02466 86-1125, chain 2 of 2) above

Assay [5] has as its target T3, alternatively spliced extra-domain B (EIIIB) domain of fibronectin (Mus musculus (assumed; murine B16F10 …, UniProt P11276).
T3 construct: fibronectin, alternatively spliced EIIIB (extra-domain B) domain; also called FN-EIIIB
Kind of assay: not stated; Kd for EIIIB printed in the discussion; Supplementary Fig. 18b is pointed to.

Changes are numbered by the printed parent chain. Numbers in names are those of the source. Read-outs that look alike come from different tables or passages of the source. Where only a bound is given, the exact number is not on record here.

T1 sequence (P02454 152-1207, chain 1 of 2): as the sequence (P02454 152-1207, chain 1 of 2) above
T1 sequence (P02466 86-1125, chain 2 of 2): as the sequence (P02466 86-1125, chain 2 of 2) above
Collagen I (Gibco), coated on 96-well plates (UniProt P02454), sequence (P02454 152-1207, chain 1 of 2): as the sequence (P02454 152-1207, chain 1 of 2) above
Collagen I (Gibco), coated on 96-well plates (UniProt P02454), sequence (P02466 86-1125, chain 2 of 2, further chain): as the sequence (P02466 86-1125, chain 2 of 2) above

In general, Kd refers to the constant that tells how readily two partners part at equilibrium. Read a low Kd as tighter binding. With LAIR-MSA (from UniProt P07724 25-608), the Kd in assay [1] stood at 17 nM.

With “LAIR-LAIR-MSA^H464Q-IL2-his (from UniProt Q8BG84 22-144; Q8BG84 22-144)”, the Kd in assay [2] amounted to 13 nM.

As for “LAIR-IL2-his (from UniProt Q8BG84 22-144)”, the Kd in assay [2] stood at 220 nM.

B1: LAIRx-his (domain or fragment)
chain: QEGSLPDITIFPNSSLMISQGTFVTVVCSYSDKHDLYNMVALAKDGSTFMEKSTEPYKTEDEFEIGPVNETITGHYSCIYSKGITWSERSKTLELKVIKENVIQTPAPGPTSDTSWLKTYSIY
B1 returned a Kd in assay [3] above 1000 nM.

B2: LAIR-his (domain or fragment)
chain: B1 chain with A41R, A43E
With B2, the Kd in assay [3] was determined as 102 nM.

B3: LAIRx-LAIRx-MSA^H464Q-IL2-his (other)
chain: QEGSLPDITIFPNSSLMISQGTFVTVVCSYSDKHDLYNMVALAKDGSTFMEKSTEPYKTEDEFEIGPVNETITGHYSCIYSKGITWSERSKTLELKVIKENVIQTPAPGPTSDTSWLKTYSIYQEGSLPDITIFPNSSLMISQGTFVTVVCSYSDKHDLYNMVALAKDGSTFMEKSTEPYKTEDEFEIGPVNETITGHYSCIYSKGITWSERSKTLELKVIKENVIQTPAPGPTSDTSWLKTYSIYEAHKSEIAHRYNDLGEQHFKGLVLIAFSQYLQKCSYDEHAKLVQEVTDFAKTCVADESAANCDKSLHTLFGDKLCAIPNLRENYGELADCCTKQEPERNECFLQHKDDNPSLPPFERPEAEAMCTSFKENPTTFMGHYLHEVARRHPYFYAPELLYYAEQYNEILTQCCAEADKESCLTPKLDGVKEKALVSSVRQRMKCSSMQKFGERAFKAWAVARLSQTFPNADFAEITKLATDLTKVNKECCHGDLLECADDRAELAKYMCENQATISSKLQTCCDKPLLKKAHCLSEVEHDTMPADLPAIAADFVEDQEVCKNYAEAKDVFLGTFLYEYSRRHPDYSVSLLLRLAKKYEATLEKCCAEANPPACYGTVLAEFQPLVEEPKNLVKTNCDLYEKLGEYGFQNAILVRYTQKAPQVSTPTLVEAARNLGRVGTKCCTLPEDQRLPCVEDYLSAILNRVCLLQEKTPVSEHVTKCCSGSLVERRPCFSALTVDETYVPKEFKAETFTFHSDICTLPEKEKQIKKQTALAELVKHKPKATAEQLKTVMDDFAQFLDTCCKAADKDTCFSTEGPNLVTRCKDALAAPTSSSTSSSTAEAQQQQQQQQQQQQHLEQLLMDLQELLSRMENYRNLKLPRMLTFKFYLPKQATELKDLQCLEDELGPLRHVLDLTQSKSFQLEDAENFISNIRVTVVKLKGSDNTFECQFDDESATVVDFLRRWIAFCQSIISTSPQ
As to B3, in assay [4], the Kd was above 1000 nM.

B4: LAIRx-LAIRx-MSA^H464Q-his (other)
chain: QEGSLPDITIFPNSSLMISQGTFVTVVCSYSDKHDLYNMVALAKDGSTFMEKSTEPYKTEDEFEIGPVNETITGHYSCIYSKGITWSERSKTLELKVIKENVIQTPAPGPTSDTSWLKTYSIYQEGSLPDITIFPNSSLMISQGTFVTVVCSYSDKHDLYNMVALAKDGSTFMEKSTEPYKTEDEFEIGPVNETITGHYSCIYSKGITWSERSKTLELKVIKENVIQTPAPGPTSDTSWLKTYSIYEAHKSEIAHRYNDLGEQHFKGLVLIAFSQYLQKCSYDEHAKLVQEVTDFAKTCVADESAANCDKSLHTLFGDKLCAIPNLRENYGELADCCTKQEPERNECFLQHKDDNPSLPPFERPEAEAMCTSFKENPTTFMGHYLHEVARRHPYFYAPELLYYAEQYNEILTQCCAEADKESCLTPKLDGVKEKALVSSVRQRMKCSSMQKFGERAFKAWAVARLSQTFPNADFAEITKLATDLTKVNKECCHGDLLECADDRAELAKYMCENQATISSKLQTCCDKPLLKKAHCLSEVEHDTMPADLPAIAADFVEDQEVCKNYAEAKDVFLGTFLYEYSRRHPDYSVSLLLRLAKKYEATLEKCCAEANPPACYGTVLAEFQPLVEEPKNLVKTNCDLYEKLGEYGFQNAILVRYTQKAPQVSTPTLVEAARNLGRVGTKCCTLPEDQRLPCVEDYLSAILNRVCLLQEKTPVSEHVTKCCSGSLVERRPCFSALTVDETYVPKEFKAETFTFHSDICTLPEKEKQIKKQTALAELVKHKPKATAEQLKTVMDDFAQFLDTCCKAADKDTCFSTEGPNLVTRCKDALA
In assay [3], B4 came in with a Kd above 1000 nM.

B5: LAIR-LAIRx-MSA^H464Q-his (other)
chain: B4 chain with A41R, A43E
As for B5, in assay [3], the Kd was found to be 158 nM.

B6: LAIR-LAIR-MSA^H464Q-his (other)
chain: B4 chain with A41R, A43E, A164R, A166E
B6: in assay [3], binding was characterised by a dissociation constant (Kd) of 20 nM.

B7: LAIRx-IL2-his (other)
chain: QEGSLPDITIFPNSSLMISQGTFVTVVCSYSDKHDLYNMVALAKDGSTFMEKSTEPYKTEDEFEIGPVNETITGHYSCIYSKGITWSERSKTLELKVIKENVIQTPAPGPTSDTSWLKTYSIYAPTSSSTSSSTAEAQQQQQQQQQQQQHLEQLLMDLQELLSRMENYRNLKLPRMLTFKFYLPKQATELKDLQCLEDELGPLRHVLDLTQSKSFQLEDAENFISNIRVTVVKLKGSDNTFECQFDDESATVVDFLRRWIAFCQSIISTSPQ
In assay [4], B7 showed a Kd above 1000 nM.

B8: NJB2-MSA^H464Q-IL2 (VHH)
VHH: QVQLVETGGGLVQAGGSLRLSCAASGSTFSHNAGGWYRQAPEKQRELVAGISSDGNINYADSVKDRFTISRDNASNTMYLQMNNLKPEDTAVYVCNIRGSYGNTYYSRWGQGTQVTVSS
notes: nanobody NJB2 (15 kD); mouse serum albumin (MSA) with H464Q; interleukin-2 (IL-2); 98 kD; MSA^H464Q incorporated between the nanobody and IL-2; source: suspension HEK293, transfected, purified
Turning to B8, the affinity in assay [5], expressed as Kd, was 1 nM.

B9: LAIR30.w.A V27A,D45G-MSA (other)
chain: QEGSLPDITIFPNSSLMISQGTFVTVACSYSDKHDLYNMVRLEKGGSTFMEKSTEPYKTEDEFEIGPVNETITGHYSCIYSKGITWSERSKTLELKVIKENVIQTPAPGPTSDTSWLKTYSIYEAHKSEIAHRYNDLGEQHFKGLVLIAFSQYLQKCSYDEHAKLVQEVTDFAKTCVADESAANCDKSLHTLFGDKLCAIPNLRENYGELADCCTKQEPERNECFLQHKDDNPSLPPFERPEAEAMCTSFKENPTTFMGHYLHEVARRHPYFYAPELLYYAEQYNEILTQCCAEADKESCLTPKLDGVKEKALVSSVRQRMKCSSMQKFGERAFKAWAVARLSQTFPNADFAEITKLATDLTKVNKECCHGDLLECADDRAELAKYMCENQATISSKLQTCCDKPLLKKAHCLSEVEHDTMPADLPAIAADFVEDQEVCKNYAEAKDVFLGTFLYEYSRRHPDYSVSLLLRLAKKYEATLEKCCAEANPPACYGTVLAEFQPLVEEPKNLVKTNCDLYEKLGEYGFQNAILVRYTQKAPQVSTPTLVEAARNLGRVGTKCCTLPEDQRLPCVEDYLSAILNRVCLLHEKTPVSEHVTKCCSGSLVERRPCFSALTVDETYVPKEFKAETFTFHSDICTLPEKEKQIKKQTALAELVKHKPKATAEQLKTVMDDFAQFLDTCCKAADKDTCFSTEGPNLVTRCKDALA
Turning to B9, binding in assay [1] (both partners purified) was characterised by a dissociation constant (Kd) of 120 nM.

B10: LAIR30.w.F S90A-MSA (other)
chain: B9 chain with A27V, G45D, S90A
For B10, the Kd in assay [1] (both partners purified) is 63 nM.

B11: LAIR30.w.C E51G-MSA (other)
chain: B9 chain with A27V, G45D, E51G
Take B11: binding in assay [1] (both partners purified) was put at a Kd of 170 nM.

B12: LAIR30.w.B F49S-MSA (other)
chain: B9 chain with A27V, G45D, F49S
B12 gave a Kd in assay [1] (both partners purified) of 130 nM.

B13: LAIR30.w.E F63L-MSA (other)
chain: B9 chain with A27V, G45D, F63L
For the molecule B13, binding in assay [1] (both partners purified) was put at a Kd of 96 nM.

B14: LAIR30.d.D E43A-MSA (other)
chain: B9 chain with A27V, E43A, G45D
For B14, in assay [1] (both partners purified), the Kd was 220 nM.

For the origin of these results see article PMC8748612, “Maximizing response to intratumoral immunotherapy in mice by tuning local retention” (Nature Communications, 2022).
